One experiment has as its system MEK phosphorylation. The experiment is described as follows: Western blot of MEK phosphorylation in healthy keratinocytes (IL-22). In kind it is cell-based, human. The note with it: IL-22 time course, no peptide, n = 3. As for the experimental part: Figure 5 KIR-ESS peptide inhibits IL-22-induced phosphorylation of STAT3 and Erk in healthy and SCC-derived keratinocytes (A) Protein extracts obtained from healthy keratinocytes (n = 3) pre-treated or not with 15 μM (left panel) or 75 μM (right panel), KIR, KIR-ESS and control (Ctrl1 or Ctrl2) peptides, and, then, […], were subjected to WB analysis to detect STAT3 (Tyr705), Erk and MEK phosphorylation. Filters were probed with anti-STAT3, -Erk and –MEK Abs (top). (B) Protein extracts obtained from healthy keratinocytes (n = 3) pre-treated or not with 75 μM KIR-ESS and control (Ctrl1) peptides, and, then, stimulated or not with IL-22 for 10 min, were subjected to immunoprecipitation for IL-22R1 and Jak1, and then analysed by WB to detect phosphorylated and unphosphorylated forms of the proteins. (C) Unphosphorylated and phosphorylated forms of STAT1 (Tyr701) and STAT3 (Tyr705) were monitored in keratinocytes treated with IFN-γ for 15 min by WB analysis (bottom). In all experimental groups, filters were stripped and re-probed with β-actin Ab. (D) Protein extracts were obtained from CAL27 (left panel) or CAL33 (right panel) lines treated or not with 75 μM peptides in presence of IL-22 or IFN-γ. WB was performed to detect basal and phosphorylated STAT1, STAT3 and Erk. D.I. ratio indicates the densitometric intensity of phosphorylated/unphosphorylated target protein. […]
(In general: In western blotting, separated proteins are transferred to a membrane and probed.)

A further experiment deals with Jak1 phosphorylation. The experiment is described as follows: IP/WB of Jak1 phosphorylation in healthy keratinocytes (IL-22). It counts as cell-based, human. The settings on record: IL-22 10 min, no peptide, n = 3. The protocol:
Figure 5 KIR-ESS peptide inhibits IL-22-induced phosphorylation of STAT3 and Erk in healthy and SCC-derived keratinocytes (A) Protein extracts obtained from healthy keratinocytes (n = 3) pre-treated or not with 15 μM (left panel) or 75 μM (right panel), KIR, KIR-ESS and control (Ctrl1 or Ctrl2) peptides, and, then, stimulated or not with IL-22 for 20 min, were subjected to WB analysis to detect STAT3 (Tyr705), Erk and MEK phosphorylation. Filters were probed with anti-STAT3, -Erk and –MEK Abs (top). (B) Protein extracts obtained from healthy keratinocytes (n = 3) pre-treated or not with 75 μM KIR-ESS and control (Ctrl1) peptides, and, then, stimulated or not with IL-22 for 10 min, were subjected to immunoprecipitation for IL-22R1 and Jak1, and then analysed by WB to detect phosphorylated and unphosphorylated forms of the proteins. (C) Unphosphorylated and phosphorylated forms of STAT1 (Tyr701) and STAT3 (Tyr705) were monitored in keratinocytes treated with IFN-γ for 15 min by WB analysis (bottom). In all experimental groups, filters were stripped and re-probed with β-actin Ab. (D) Protein extracts were obtained from CAL27 (left panel) or CAL33 (right panel) lines treated or not with 75 μM peptides in presence of IL-22 or IFN-γ. WB was performed to detect basal and phosphorylated STAT1, STAT3 and Erk. […]

This note sets out measurements from paper PMC5421877, “SOCS3 inhibits the pathological effects of IL-22 in non-melanoma skin tumor-derived keratinocytes” (Oncotarget, 2017).

B1: IL-22: cytokine stimulus, R&D Systems (protein, UniProt Q9GZX6 34-179, looked up)
Interleukin-22: APISSHCRLDKSNFQQPYITNRTFMLAKEASLADNNTDVRLIGEKLFHGVSMSERCYLMKQVLNFTLEEVLFPQSDRFQPYMQEVVPFLARLSNRLSTCHIEGDDLHIQRNVQKLKDTVKKLGESGEIKAIGELDLLFMSLRNACI
On to B1, for which the MEK1/2 activation entry in the experiment on MEK phosphorylation was “culminated with STAT3, MEK1/2 and Erk1/2 activation”. For the same molecule, in the experiment on Jak1 phosphorylation, the Jak1 phosphorylation induced entry is “induced molecular cascade implicating phosphorylation of IL-22R1, Tyk2 and Jak1”.
